Publication PMC9482650, “Quantitative fragmentomics allow affinity mapping of interactomes” (Nature Communications, 2022)

B1: GRIA2, P42262 (peptide)
chain: NVYGIESVKI
B2: SLC1A1, P43005 (peptide)
chain: TISFTQTSQF
B3: KIRREL2, Q6UWL6 (peptide)
chain: PSHPRLQTHV
B4: CIB2, O75838 (peptide)
chain: DFLSTFHIRI

Target: LIMK2, P53671
Assay: holdup assay
Design: key: below the threshold = too weak to quantify, mostly under pKd 3.1 to 4
Conditions: plain residues with an end cap or a label only (N-terminal biotin on a linker: ado-ado)

Chain of LIMK2, P53671 (P53671 143-248): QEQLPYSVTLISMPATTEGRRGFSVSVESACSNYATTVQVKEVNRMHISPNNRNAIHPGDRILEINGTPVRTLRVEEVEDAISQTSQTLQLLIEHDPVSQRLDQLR

Row | Binder | pKd
1 | B1 | below the threshold
2 | B2 | below the threshold
3 | B3 | below the threshold
4 | B4 | below the threshold

Target: MAGI2_5, Q86UL8
Assay: holdup assay
Design: key: below the threshold = too weak to quantify, mostly under pKd 3.1 to 4
Conditions: plain residues with an end cap or a label only (N-terminal biotin on a linker: ado-ado)

Chain of MAGI2_5, Q86UL8 (Q86UL8 915-1017): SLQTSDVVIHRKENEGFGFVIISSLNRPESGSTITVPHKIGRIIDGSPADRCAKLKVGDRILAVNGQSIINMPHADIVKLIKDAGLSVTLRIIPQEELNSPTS

Row | Binder | pKd
5 | B1 | below the threshold
6 | B2 | 4.29
7 | B3 | 3.58
8 | B4 | below the threshold

Target: GRIP2_6, Q9C0E4
Assay: holdup assay
Design: key: below the threshold = too weak to quantify, mostly under pKd 3.1 to 4
Conditions: plain residues with an end cap or a label only (N-terminal biotin on a linker: ado-ado)

Chain of GRIP2_6, Q9C0E4 (Q9C0E4 648-740): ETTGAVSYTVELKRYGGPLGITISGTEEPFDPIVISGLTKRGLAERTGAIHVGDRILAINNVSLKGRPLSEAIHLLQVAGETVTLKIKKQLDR

Row | Binder | pKd
9 | B1 | 3.64
10 | B2 | below the threshold
11 | B3 | below the threshold
12 | B4 | 4.58

Target: T1, CARD11, Q9BXL7
T1 sequence (Q9BXL7 662-765, limits assumed, looked up): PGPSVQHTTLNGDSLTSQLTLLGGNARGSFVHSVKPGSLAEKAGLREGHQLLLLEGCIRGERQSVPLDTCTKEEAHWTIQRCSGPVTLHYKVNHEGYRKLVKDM
Assay: holdup assay
Design: key: below the threshold = too weak to quantify, mostly under pKd 3.1 to 4
Conditions: plain residues with an end cap or a label only (N-terminal biotin on a linker: ado-ado)

Row | Binder | pKd
13 | B1 | below the threshold
14 | B2 | below the threshold
15 | B3 | below the threshold
16 | B4 | below the threshold

Target: SNX27, Q96L92
Assay: holdup assay
Design: key: below the threshold = too weak to quantify, mostly under pKd 3.1 to 4
Conditions: plain residues with an end cap or a label only (N-terminal biotin on a linker: ado-ado)

Row | Binder | pKd
17 | B1 | below the threshold
18 | B2 | 5.06
19 | B3 | below the threshold
20 | B4 | below the threshold

Target: MAGI1_1, Q96QZ7
Assay: holdup assay
Design: key: below the threshold = too weak to quantify, mostly under pKd 3.1 to 4
Conditions: plain residues with an end cap or a label only (N-terminal biotin on a linker: ado-ado)

Chain of MAGI1_1, Q96QZ7 (Q96QZ7 1-106): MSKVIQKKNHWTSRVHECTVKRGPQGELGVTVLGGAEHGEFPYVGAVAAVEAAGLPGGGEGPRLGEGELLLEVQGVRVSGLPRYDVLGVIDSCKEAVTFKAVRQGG

Row | Binder | pKd
21 | B1 | 3.59
22 | B2 | below the threshold
23 | B3 | below the threshold
24 | B4 | below the threshold

Target: NHERF4_1, Q86UT5-2
Assay: holdup assay
Design: key: below the threshold = too weak to quantify, mostly under pKd 3.1 to 4
Conditions: plain residues with an end cap or a label only (N-terminal biotin on a linker: ado-ado)

Chain of NHERF4_1, Q86UT5-2 (Q86UT5 other isoform, or with tags, fused parts or gaps): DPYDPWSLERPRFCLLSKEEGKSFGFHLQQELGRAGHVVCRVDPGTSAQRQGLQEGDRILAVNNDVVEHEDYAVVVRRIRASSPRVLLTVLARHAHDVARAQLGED

Row | Binder | pKd
25 | B1 | 3.78
26 | B2 | 3.99
27 | B3 | 3.62
28 | B4 | below the threshold

Target: T2, PDZRN3_1, Q9UPQ7
T2 sequence (Q9UPQ7 244-349, limits assumed, looked up): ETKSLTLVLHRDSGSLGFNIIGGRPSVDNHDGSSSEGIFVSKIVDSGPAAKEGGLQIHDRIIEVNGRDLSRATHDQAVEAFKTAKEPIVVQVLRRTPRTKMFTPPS
Assay: holdup assay
Design: key: below the threshold = too weak to quantify, mostly under pKd 3.1 to 4
Conditions: plain residues with an end cap or a label only (N-terminal biotin on a linker: ado-ado)

Row | Binder | pKd
29 | B1 | below the threshold
30 | B2 | below the threshold
31 | B3 | below the threshold
32 | B4 | below the threshold

Target: T3, ARHGAP21, Q5T5U3
T3 sequence (Q5T5U3 45-169, limits assumed, looked up): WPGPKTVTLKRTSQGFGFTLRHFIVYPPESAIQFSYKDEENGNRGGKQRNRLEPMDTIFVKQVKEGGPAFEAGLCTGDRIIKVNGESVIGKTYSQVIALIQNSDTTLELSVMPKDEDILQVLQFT
Assay: holdup assay
Design: key: below the threshold = too weak to quantify, mostly under pKd 3.1 to 4
Conditions: plain residues with an end cap or a label only (N-terminal biotin on a linker: ado-ado)

Row | Binder | pKd
33 | B1 | below the threshold
34 | B2 | below the threshold
35 | B3 | below the threshold
36 | B4 | 4.13

Target: T4, LNX2_3, Q8N448
T4 sequence (Q8N448 463-564, limits assumed, looked up): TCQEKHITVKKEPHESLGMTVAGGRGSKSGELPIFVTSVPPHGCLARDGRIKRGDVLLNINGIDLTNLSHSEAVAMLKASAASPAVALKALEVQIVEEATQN
Assay: holdup assay
Design: key: below the threshold = too weak to quantify, mostly under pKd 3.1 to 4
Conditions: plain residues with an end cap or a label only (N-terminal biotin on a linker: ado-ado)

Row | Binder | pKd
37 | B1 | below the threshold
38 | B2 | below the threshold
39 | B3 | below the threshold
40 | B4 | below the threshold

Target: MAGI2_6, Q86UL8
Assay: holdup assay
Design: key: below the threshold = too weak to quantify, mostly under pKd 3.1 to 4
Conditions: plain residues with an end cap or a label only (N-terminal biotin on a linker: ado-ado)

Chain of MAGI2_6, Q86UL8 (Q86UL8 1141-1229): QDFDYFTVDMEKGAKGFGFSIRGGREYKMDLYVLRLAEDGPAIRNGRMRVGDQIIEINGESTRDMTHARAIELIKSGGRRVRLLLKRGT

Row | Binder | pKd
41 | B1 | below the threshold
42 | B2 | below the threshold
43 | B3 | below the threshold
44 | B4 | below the threshold

Target: LDB3, O75112
Assay: holdup assay
Design: key: below the threshold = too weak to quantify, mostly under pKd 3.1 to 4
Conditions: plain residues with an end cap or a label only (N-terminal biotin on a linker: ado-ado)

Chain of LDB3, O75112 (O75112 1-94): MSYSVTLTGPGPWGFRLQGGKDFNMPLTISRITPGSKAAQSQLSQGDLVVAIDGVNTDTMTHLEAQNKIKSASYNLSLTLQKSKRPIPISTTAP

Row | Binder | pKd
45 | B1 | below the threshold
46 | B2 | 3.58
47 | B3 | below the threshold
48 | B4 | below the threshold

Target: FRMPD3, Q5JV73
Assay: holdup assay
Design: key: below the threshold = too weak to quantify, mostly under pKd 3.1 to 4
Conditions: plain residues with an end cap or a label only (N-terminal biotin on a linker: ado-ado)

Chain of FRMPD3, Q5JV73 (Q5JV73 12-100): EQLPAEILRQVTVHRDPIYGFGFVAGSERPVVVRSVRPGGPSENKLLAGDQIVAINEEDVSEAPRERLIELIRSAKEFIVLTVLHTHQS

Row | Binder | pKd
49 | B1 | below the threshold
50 | B2 | below the threshold
51 | B3 | below the threshold
52 | B4 | below the threshold

Target: T5, FRMPD1, Q5SYB0
T5 sequence (Q5SYB0 52-145, limits assumed, looked up): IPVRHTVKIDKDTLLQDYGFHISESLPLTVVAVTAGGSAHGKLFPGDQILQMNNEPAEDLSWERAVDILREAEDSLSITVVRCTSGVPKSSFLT
Assay: holdup assay
Design: key: below the threshold = too weak to quantify, mostly under pKd 3.1 to 4
Conditions: plain residues with an end cap or a label only (N-terminal biotin on a linker: ado-ado)

Row | Binder | pKd
53 | B1 | below the threshold
54 | B2 | below the threshold
55 | B3 | below the threshold
56 | B4 | below the threshold

Target: Inadl_3, Q8NI35
Assay: holdup assay
Design: key: below the threshold = too weak to quantify, mostly under pKd 3.1 to 4
Conditions: plain residues with an end cap or a label only (N-terminal biotin on a linker: ado-ado)

Chain of Inadl_3, Q8NI35 (Q8NI35 359-469): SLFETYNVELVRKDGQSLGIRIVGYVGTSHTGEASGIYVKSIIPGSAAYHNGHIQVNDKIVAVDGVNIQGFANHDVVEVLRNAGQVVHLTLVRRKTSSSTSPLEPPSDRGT

Row | Binder | pKd
57 | B1 | below the threshold
58 | B2 | below the threshold
59 | B3 | below the threshold
60 | B4 | 4.49

Target: Inadl_10, Q8NI35
Assay: holdup assay
Design: key: below the threshold = too weak to quantify, mostly under pKd 3.1 to 4
Conditions: plain residues with an end cap or a label only (N-terminal biotin on a linker: ado-ado)

Chain of Inadl_10, Q8NI35 (Q8NI35 1673-1763): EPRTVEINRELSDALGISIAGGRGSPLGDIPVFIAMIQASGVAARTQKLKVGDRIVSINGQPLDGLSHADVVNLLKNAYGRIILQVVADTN

Row | Binder | pKd
61 | B1 | below the threshold
62 | B2 | below the threshold
63 | B3 | below the threshold
64 | B4 | below the threshold

Target: DLG2_2, Q15700
Assay: holdup assay
Design: key: below the threshold = too weak to quantify, mostly under pKd 3.1 to 4
Conditions: plain residues with an end cap or a label only (N-terminal biotin on a linker: ado-ado)

Chain of DLG2_2, Q15700 (Q15700 189-283): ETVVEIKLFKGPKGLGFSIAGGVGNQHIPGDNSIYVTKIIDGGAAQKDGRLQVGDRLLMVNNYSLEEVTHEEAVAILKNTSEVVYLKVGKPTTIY

Row | Binder | pKd
65 | B1 | 3.5
66 | B2 | below the threshold
67 | B3 | 4.28
68 | B4 | below the threshold

Target: GRASP, Q7Z6J2
Assay: holdup assay
Design: key: below the threshold = too weak to quantify, mostly under pKd 3.1 to 4
Conditions: plain residues with an end cap or a label only (N-terminal biotin on a linker: ado-ado)

Chain of GRASP, Q7Z6J2 (Q7Z6J2 96-193): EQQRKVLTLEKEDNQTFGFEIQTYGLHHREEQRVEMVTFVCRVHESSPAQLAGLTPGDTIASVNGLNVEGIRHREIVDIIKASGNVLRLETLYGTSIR

Row | Binder | pKd
69 | B1 | below the threshold
70 | B2 | 5.31
71 | B3 | 4.18
72 | B4 | 3.47

Target: PTPN3, P26045
Assay: holdup assay
Design: key: below the threshold = too weak to quantify, mostly under pKd 3.1 to 4
Conditions: plain residues with an end cap or a label only (N-terminal biotin on a linker: ado-ado)

Chain of PTPN3, P26045 (P26045 505-587): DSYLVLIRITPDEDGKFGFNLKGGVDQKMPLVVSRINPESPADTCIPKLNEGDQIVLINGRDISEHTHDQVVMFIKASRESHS

Row | Binder | pKd
73 | B1 | below the threshold
74 | B2 | 4.09
75 | B3 | 4.13
76 | B4 | below the threshold

Target: Inadl_8, Q8NI35
Assay: holdup assay
Design: key: below the threshold = too weak to quantify, mostly under pKd 3.1 to 4
Conditions: plain residues with an end cap or a label only (N-terminal biotin on a linker: ado-ado)

Chain of Inadl_8, Q8NI35 (Q8NI35 1425-1530): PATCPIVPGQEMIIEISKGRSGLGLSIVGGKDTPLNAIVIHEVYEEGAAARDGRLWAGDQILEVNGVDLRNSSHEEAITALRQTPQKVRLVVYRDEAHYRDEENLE

Row | Binder | pKd
77 | B1 | below the threshold
78 | B2 | below the threshold
79 | B3 | 3.61
80 | B4 | below the threshold

Target: T6, RADIL, Q96JH8
T6 sequence (Q96JH8 971-1071, limits assumed, looked up): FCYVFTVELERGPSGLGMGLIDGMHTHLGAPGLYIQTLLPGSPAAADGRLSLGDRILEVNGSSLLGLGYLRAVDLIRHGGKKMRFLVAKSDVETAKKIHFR
Assay: holdup assay
Design: key: below the threshold = too weak to quantify, mostly under pKd 3.1 to 4
Conditions: plain residues with an end cap or a label only (N-terminal biotin on a linker: ado-ado)

Row | Binder | pKd
81 | B1 | below the threshold
82 | B2 | below the threshold
83 | B3 | 3.73
84 | B4 | 4.19

Target: DLG4_1, P78352
Assay: holdup assay
Design: key: below the threshold = too weak to quantify, mostly under pKd 3.1 to 4
Conditions: plain residues with an end cap or a label only (N-terminal biotin on a linker: ado-ado)

Chain of DLG4_1, P78352 (P78352 62-152): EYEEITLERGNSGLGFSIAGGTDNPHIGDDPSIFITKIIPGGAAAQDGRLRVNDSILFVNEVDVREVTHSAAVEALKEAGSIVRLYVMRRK

Row | Binder | pKd
85 | B1 | below the threshold
86 | B2 | below the threshold
87 | B3 | 4.06
88 | B4 | below the threshold

Target: T7, PARD3B_1, Q8TEW8
T7 sequence (Q8TEW8 196-299, limits assumed, looked up): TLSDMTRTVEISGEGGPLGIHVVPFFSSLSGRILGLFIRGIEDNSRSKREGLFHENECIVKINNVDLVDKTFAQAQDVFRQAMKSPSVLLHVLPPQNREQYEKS
Assay: holdup assay
Design: key: below the threshold = too weak to quantify, mostly under pKd 3.1 to 4
Conditions: plain residues with an end cap or a label only (N-terminal biotin on a linker: ado-ado)

Row | Binder | pKd
89 | B1 | 5.1
90 | B2 | 4.24
91 | B3 | below the threshold
92 | B4 | 4.68

Target: GIPC2, Q8TF65
Assay: holdup assay
Design: key: below the threshold = too weak to quantify, mostly under pKd 3.1 to 4
Conditions: plain residues with an end cap or a label only (N-terminal biotin on a linker: ado-ado)

Chain of GIPC2, Q8TF65 (Q8TF65 112-203): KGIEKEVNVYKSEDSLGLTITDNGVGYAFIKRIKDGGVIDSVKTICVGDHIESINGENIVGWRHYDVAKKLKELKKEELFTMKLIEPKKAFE

Row | Binder | pKd
93 | B1 | below the threshold
94 | B2 | below the threshold
95 | B3 | below the threshold
96 | B4 | below the threshold

Target: T8, LIN7A, O14910
T8 sequence (O14910 103-200, limits assumed, looked up): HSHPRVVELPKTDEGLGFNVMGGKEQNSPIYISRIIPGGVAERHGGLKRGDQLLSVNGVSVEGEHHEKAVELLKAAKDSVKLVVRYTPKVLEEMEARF
Assay: holdup assay
Design: key: below the threshold = too weak to quantify, mostly under pKd 3.1 to 4
Conditions: plain residues with an end cap or a label only (N-terminal biotin on a linker: ado-ado)

Row | Binder | pKd
97 | B1 | below the threshold
98 | B2 | below the threshold
99 | B3 | below the threshold
100 | B4 | below the threshold

Target: T9, MPP2, Q14168
T9 sequence (Q14168 180-250, limits assumed, looked up): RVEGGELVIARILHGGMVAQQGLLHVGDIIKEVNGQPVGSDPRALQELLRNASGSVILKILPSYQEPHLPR
Assay: holdup assay
Design: key: below the threshold = too weak to quantify, mostly under pKd 3.1 to 4
Conditions: plain residues with an end cap or a label only (N-terminal biotin on a linker: ado-ado)

Row | Binder | pKd
101 | B1 | below the threshold
102 | B2 | below the threshold
103 | B3 | below the threshold
104 | B4 | below the threshold

Target: ARHGEF12, Q9NZN5-2
Assay: holdup assay
Design: key: below the threshold = too weak to quantify, mostly under pKd 3.1 to 4
Conditions: plain residues with an end cap or a label only (N-terminal biotin on a linker: ado-ado)

Chain of ARHGEF12, Q9NZN5-2 (Q9NZN5 other isoform, or with tags, fused parts or gaps): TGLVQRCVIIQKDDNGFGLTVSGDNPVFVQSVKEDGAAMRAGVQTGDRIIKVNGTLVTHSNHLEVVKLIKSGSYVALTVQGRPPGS

Row | Binder | pKd
105 | B1 | 3.59
106 | B2 | 3.79
107 | B3 | 4.26
108 | B4 | below the threshold

Target: SCRIB_1, Q14160
Assay: holdup assay
Design: key: below the threshold = too weak to quantify, mostly under pKd 3.1 to 4
Conditions: plain residues with an end cap or a label only (N-terminal biotin on a linker: ado-ado)

Chain of SCRIB_1, Q14160 (Q14160 718-814): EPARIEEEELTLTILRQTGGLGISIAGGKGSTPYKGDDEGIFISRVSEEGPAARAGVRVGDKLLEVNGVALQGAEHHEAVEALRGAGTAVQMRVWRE

Row | Binder | pKd
109 | B1 | below the threshold
110 | B2 | 3.5
111 | B3 | 3.88
112 | B4 | below the threshold

Target: MAST2, Q6P0Q8
Assay: holdup assay
Design: key: below the threshold = too weak to quantify, mostly under pKd 3.1 to 4
Conditions: plain residues with an end cap or a label only (N-terminal biotin on a linker: ado-ado)

Chain of MAST2, Q6P0Q8 (Q6P0Q8 1099-1202): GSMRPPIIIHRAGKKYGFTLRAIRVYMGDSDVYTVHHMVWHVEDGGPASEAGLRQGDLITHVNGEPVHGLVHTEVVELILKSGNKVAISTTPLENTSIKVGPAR

Row | Binder | pKd
113 | B1 | 4.35
114 | B2 | 4.89
115 | B3 | 5.5
116 | B4 | 4.68
